The record followed here is patent US20220153869A1 (TAVOTEK BIOTHERAPEUTICS HONG KONG, published 2022).

Changes are numbered by the printed parent chain.

Test [1] concerns the target T1, HER2 expressed on SK-BR-3 cell surface (UniProt P04626 23-1255, limits assumed).
T1 construct: whole, on cells; also called cell surface HER2; HER2-expressing SK-BR-3 cells
Nature of the test: flow cytometry on SK-BR-3 cells, PE anti-human secondary. The text has this: (§1) Flow cytometry-based binding assays were also employed to evaluate the binding to HER2 expressed on cell surface by exemplary HER2 x VEGF bispecific antibodies with or without IGF2 masking domain (FIG. 10). In these assays, increasing concentrations of exemplary HER2 x VEGF bispecific antibodies were applied to HER2-expressing SK-BR-3 cells and their bindings to cell surface HER2 were detected by PE-conjugated anti-human secondary antibody by MacsQuant flow cytometer.
In general terms: In flow cytometry, cells or beads pass a laser one at a time.

The target in test [2] is T2, recombinant human HER2 (R&D systems) (human, UniProt P04626 23-652). In words: ELISA, recombinant human HER2 coated at 1 ug/mL, anti-human IgG-HRP. As to the method:
(§2) ELISA-based binding assays were employed to evaluate the binding to HER2 by exemplary HER2 x VEGF bispecific antibodies with or without IGF2 masking domain (FIG. 9). In these assays, 1 μg/mL recombinant human HER2 (R&D systems) were coated on ELISA plate. Increasing concentrations of exemplary HER2 x VEGF bispecific antibodies were applied on the plate and their bindings to the recombinant human HER2 were detected by HRP-conjugated anti-human IgG secondary antibody.

The target in test [3] is T1, HER2 expressed on SK-BR-3 cell surface. Nature of the test: flow cytometry on SK-BR-3 cells; unmasked reference of the comparison (higher potency than uncut).
Description: as §1

Test [4] deals with T2, recombinant human HER2 (R&D systems). Nature of the test: ELISA, recombinant human HER2 coated; unmasked reference of the comparison (higher potency than uncut). As to the method: as §2
On the technique in general: In an ELISA, binding on a coated surface is turned into a signal by an enzyme label.

The target in test [5] is recombinant human PD-L1 (R&D systems) (human, UniProt Q9NZQ7 19-239). Nature of the test: ELISA, recombinant human PD-L1 coated at 1 ug/mL, anti-human IgG-HRP. The protocol:
ELISA-based binding assays were employed to evaluate the binding to PD-L1 by these bispecific antibodies (FIG. 31A). In these assays, 1 μg/mL recombinant human PD-L1 (R&D systems) were coated on ELISA plate. Increasing concentrations of exemplary HER2 x VEGF bispecific antibodies with ScFv of an anti-PD-L1 antibody as a homing domain were applied on the plate and their bindings to the recombinant human PD-L1 were detected by HRP-conjugated anti-human IgG secondary antibody.

The target of test [6] is T2, recombinant human HER2 (R&D systems). Nature of the test: ELISA, recombinant human HER2 coated; masked antibody, not digested. As to the method: as §2
Test [7] addresses T1, HER2 expressed on SK-BR-3 cell surface. In words: flow cytometry on SK-BR-3 cells; masked antibody, not digested.
Description: as §1

recombinant human PD-L1 (R&D systems), sequence (Q9NZQ7 19-239 limits assumed): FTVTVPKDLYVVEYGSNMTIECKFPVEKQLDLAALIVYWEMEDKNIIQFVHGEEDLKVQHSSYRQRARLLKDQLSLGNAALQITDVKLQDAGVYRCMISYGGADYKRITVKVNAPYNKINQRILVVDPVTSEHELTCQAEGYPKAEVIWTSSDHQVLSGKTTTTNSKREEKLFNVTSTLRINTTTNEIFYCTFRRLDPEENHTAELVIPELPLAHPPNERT

B1: Beva_IgG1_LS (antibody, V domains shown)
VH: EVQLVESGGGLVQPGGSLRLSCAASGYTFTNYGMNWVRQAPGKGLEWVGWINTYTGEPTYAADFKRRFTFSLDTSKSTAYLQMNSLRAEDTAVYYCAKYPHYYGSSHWYFDVWGQGTLVTVSS
VL: DIQMTQSPSSLSASVGDRVTITCSASQDISNYLNWYQQKPGKAPKVLIYFTSSLHSGVPSRFSGSGSGTDFTLTISSLQPEDFATYYCQQYSTVPWTFGQGTKVEIKR
notes: also called EAC291/EAC207
Consider B1, for which the binding result in test [1] and in test [2] was “no binding” throughout.

B2: TrasVH1VL1 x BevaVH3VL1_IgG1_LS (bispecific antibody)
heavy 1: QVQLVQSGAEVKKPGSSVKVSCKASGFNIKDTYIHWVRQAPGQGLEWMGRIYPTNGYTRYAQKFQGRATITADESTSTAYMEVSSLRSEDTAVYYCSRWGGDGFYAMDYWGQGTLVTVSSASTKGPSVFPLAPSSKSTSGGTAALGCLVKDYFPEPVTVSWNSGALTSGVHTFPAVLQSSGLYSLSSVVTVPSSSLGTQTYICNVNHKPSNTKVDKKVEPKSCDKTHTCPPCPAPELLGGPSVFLFPPKPKDTLMISRTPEVTCVVVDVSHEDPEVKFNWYVDGVEVHNAKTKPREEQYNSTYRVVSVLTVLHQDWLNGKEYKCKVSNKALPAPIEKTISKAKGQPREPQVYTLPPSRDELTKNQVSLTCLVKGFYPSDIAVEWESNGQPENNYKTTPPVLDSDGSFLLYSKLTVDKSRWQQGNVFSCSVLHEALHSHYTQKSLSLSPGK
light 1: DIVMTQTPLSLPVTPGEPASISCRASQDVNTAVAWYLQKPGQSPQLLIYSASFRYTGVPDRFSGSGSGTDFTLKISRVEAEDVGVYYCQQHYTTPPTFGQGTKVEIKRTVAAPSVFIFPPSDEQLKSGTASVVCLLNNFYPREAKVQWKVDNALQSGNSQESVTEQDSKDSTYSLSSTLTLSKADYEKHKVYACEVTHQGLSSPVTKSFNRGEC
heavy 2: QVQLVQSGAEVKKPGSSVKVSCKASGYTFTNYGMNWVRQAPGQGLEWMGWINTYTGEPTYAQKFQGRVTITADESTSTAYMELSSLRSEDTAVYYCAKYPHYYGSSHWYFDVWGQGTLVTVSSASTKGPSVFPLAPSSKSTSGGTAALGCLVKDYFPEPVTVSWNSGALTSGVHTFPAVLQSSGLYSLSSVVTVPSSSLGTQTYICNVNHKPSNTKVDKKVEPKSCDKTHTCPPCPAPELLGGPSVFLFPPKPKDTLMISRTPEVTCVVVDVSHEDPEVKFNWYVDGVEVHNAKTKPREEQYNSTYRVVSVLTVLHQDWLNGKEYKCKVSNKALPAPIEKTISKAKGQPREPQVYTLPPSRDELTKNQVSLTCLVKGFYPSDIAVEWESNGQPENNYKTTPPVLDSDGSFFLYSRLTVDKSRWQQGNVFSCSVLHEALHSHYTQKSLSLSPGK
light 2: not shown
As to B2, the binding result in test [3] and in test [4] was “binds” in each case.

B3: TrasVH1VL1 x BevaVH3VL1_IgG1_LS_E345R (bispecific antibody)
heavy 1: B2 heavy 1 with E348R
light 1: B2 light 1
heavy 2: B2 heavy 2 with E351R
light 2: not shown
Consider B3, for which the binding result in test [3] and in test [4] was “binds” each time.

B4: Tras x Beva_IgG1_LS (bispecific antibody)
heavy 1: not shown
light 1: not shown
heavy 2: EVQLVESGGGLVQPGGSLRLSCAASGYTFTNYGMNWVRQAPGKGLEWVGWINTYTGEPTYAADFKRRFTFSLDTSKSTAYLQMNSLRAEDTAVYYCAKYPHYYGSSHWYFDVWGQGTLVTVSSASTKGPSVFPLAPSSKSTSGGTAALGCLVKDYFPEPVTVSWNSGALTSGVHTFPAVLQSSGLYSLSSVVTVPSSSLGTQTYICNVNHKPSNTKVDKKVEPKSCDKTHTCPPCPAPELLGGPSVFLFPPKPKDTLMISRTPEVTCVVVDVSHEDPEVKFNWYVDGVEVHNAKTKPREEQYNSTYRVVSVLTVLHQDWLNGKEYKCKVSNKALPAPIEKTISKAKGQPREPQVYTLPPSRDELTKNQVSLTCLVKGFYPSDIAVEWESNGQPENNYKTTPPVLDSDGSFFLYSRLTVDKSRWQQGNVFSCSVLHEALHSHYTQKSLSLSPGK
light 2: not shown
notes: also called HER2 x VEGF bispecific antibody
Take B4: the binding result in test [5] is given as “no binding”.

B5: Tras x Beva_IgG1_LS_E345R (bispecific antibody)
heavy 1: not shown
light 1: not shown
heavy 2: B4 heavy 2 with E351R
light 2: not shown
Take B5: the binding result in test [5] is recorded as “no binding”.

B6: IGF2_MMP2_TrasVH1VL1 x BevaVH3VL1_IgG1_LS_E345R uncut (bispecific antibody)
heavy 1: GILEECCFRSCDLALLETYCAGGGGSPLGLAGGGGGSQVQLVQSGAEVKKPGSSVKVSCKASGFNIKDTYIHWVRQAPGQGLEWMGRIYPTNGYTRYAQKFQGRATITADESTSTAYMEVSSLRSEDTAVYYCSRWGGDGFYAMDYWGQGTLVTVSSASTKGPSVFPLAPSSKSTSGGTAALGCLVKDYFPEPVTVSWNSGALTSGVHTFPAVLQSSGLYSLSSVVTVPSSSLGTQTYICNVNHKPSNTKVDKKVEPKSCDKTHTCPPCPAPELLGGPSVFLFPPKPKDTLMISRTPEVTCVVVDVSHEDPEVKFNWYVDGVEVHNAKTKPREEQYNSTYRVVSVLTVLHQDWLNGKEYKCKVSNKALPAPIEKTISKAKGQPRRPQVYTLPPSRDELTKNQVSLTCLVKGFYPSDIAVEWESNGQPENNYKTTPPVLDSDGSFLLYSKLTVDKSRWQQGNVFSCSVLHEALHSHYTQKSLSLSPGK
light 1: AYRPSETLCGGELVDTLQFVCGDRGFAFGGGGSPLGLAGGGGGSDIVMTQTPLSLPVTPGEPASISCRASQDVNTAVAWYLQKPGQSPQLLIYSASFRYTGVPDRFSGSGSGTDFTLKISRVEAEDVGVYYCQQHYTTPPTFGQGTKVEIKRTVAAPSVFIFPPSDEQLKSGTASVVCLLNNFYPREAKVQWKVDNALQSGNSQESVTEQDSKDSTYSLSSTLTLSKADYEKHKVYACEVTHQGLSSPVTKSFNRGEC
heavy 2: GILEECCFRSCDLALLETYCAGGGGSPLGLAGGGGGSQVQLVQSGAEVKKPGSSVKVSCKASGYTFTNYGMNWVRQAPGQGLEWMGWINTYTGEPTYAQKFQGRVTITADESTSTAYMELSSLRSEDTAVYYCAKYPHYYGSSHWYFDVWGQGTLVTVSSASTKGPSVFPLAPSSKSTSGGTAALGCLVKDYFPEPVTVSWNSGALTSGVHTFPAVLQSSGLYSLSSVVTVPSSSLGTQTYICNVNHKPSNTKVDKKVEPKSCDKTHTCPPCPAPELLGGPSVFLFPPKPKDTLMISRTPEVTCVVVDVSHEDPEVKFNWYVDGVEVHNAKTKPREEQYNSTYRVVSVLTVLHQDWLNGKEYKCKVSNKALPAPIEKTISKAKGQPRRPQVYTLPPSRDELTKNQVSLTCLVKGFYPSDIAVEWESNGQPENNYKTTPPVLDSDGSFFLYSRLTVDKSRWQQGNVFSCSVLHEALHSHYTQKSLSLSPGK
light 2: not shown
Turning to B6, the binding result in test [6] and in test [7] was “binds” throughout.
